Stoichiometry N data for one substance are collected here from publication doi:10.1101/2020.10.01.322594.

For the experiment, the target named is Phaeodactylum tricornutum diaminopimelate decarboxylase (PtLYSA), amino acids 39-476 (Phaeodactylum tricornutum). As to the kind of experiment: SEC. On the technique in general: Size exclusion chromatography separates by hydrodynamic size, large species first.

“Phaeodactylum tricornutum diaminopimelate decarboxylase (PtLYSA), amino acids 39-476 (enzyme)”: the stoichiometry N (usually the number of molecules, sites or subunits per partner or assembly) was 2.
